Here are results for one substance from publication PMC5394236.

The target in this experiment is GST fused recombinant Pparγ LBD protein (UniProt P37231). As to the kind of experiment: co-immunoprecipitation (IP: Flag) with immunoblot band intensity quantification. As to conditions: lysates of HEK293 cells transfected with Flag-Lrp1β-Wt or Mut mixed with GST fused recombinant Pparγ LBD protein; n=3; parent: est. 100; read off a plot. On the technique in general: In western blotting, separated proteins are transferred to a membrane and probed.
Chain of UniProt P37231 (P37231 whole entry, the tested form may be a part): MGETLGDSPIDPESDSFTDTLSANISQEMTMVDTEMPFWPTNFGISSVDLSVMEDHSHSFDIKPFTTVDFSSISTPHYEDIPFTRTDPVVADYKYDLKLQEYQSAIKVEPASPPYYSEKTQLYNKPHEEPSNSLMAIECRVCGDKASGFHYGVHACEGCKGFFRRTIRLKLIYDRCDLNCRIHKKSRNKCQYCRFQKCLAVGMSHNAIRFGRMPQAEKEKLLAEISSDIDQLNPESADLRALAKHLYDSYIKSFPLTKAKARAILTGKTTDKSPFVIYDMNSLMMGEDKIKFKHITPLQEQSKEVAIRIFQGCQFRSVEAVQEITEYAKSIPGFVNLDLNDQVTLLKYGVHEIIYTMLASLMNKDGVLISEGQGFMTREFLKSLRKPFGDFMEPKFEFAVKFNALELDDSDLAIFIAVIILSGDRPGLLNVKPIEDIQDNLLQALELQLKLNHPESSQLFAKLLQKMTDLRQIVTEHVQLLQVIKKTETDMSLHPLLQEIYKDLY

As to Flag-Lrp1β-Wt (VGGLL) L4487A; L4488A, the percent of parent is 13%.
